# Source: the supplement of paper PMC10567573
# B1: CPXM2 (parent)
# chain: EILGCPLPDPNNYYHRRNEMTTTD
# B2: SPACA3 (parent)
# chain: FTSGFNAAALDYEADGSTNNGIFQ
# Variants of: B1
# Assay: protein stability index of a GFP-peptide fusion (GPS, HEK-293T) (PSI 1-6); higher = more stable
# Conditions: c terminus: a fixed tail appended
# 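Further: lentivirally expressed fusions sorted by FACS into six bins by GFP to DsRed ratio, PSI derived from sequencing read proportions per bin multiplied by bin number.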
row,Variant,protein stability index
1,T23C,3.8
2,T23G,3.29
3,T23Y,3.13
4,T23F,2.43
5,T23D,3.85
6,T23H,3.6
7,T23P,3.67
8,T23Q,3.54
9,T23E,4.3
10,T23R,3.37
11,T23S,3.39
12,T23M,2.78
13,T23W,2.48
14,T23N,3.48
15,T23L,3.07
16,T23V,2.85
17,T23K,3.46
18,T23A,3.65
19,T23I,3.55
20,D24T,2.82
21,D24Q,2.91
22,D24A,2.61
23,D24Y,2.29
24,D24F,1.47

row,Variant,protein stability index
1,D24E,3.53
2,D24H,2.76
3,D24P,2.49
4,D24W,1.86
5,D24V,3.02
6,D24M,2.28
7,D24R,3.07
8,D24S,3.27
9,D24N,3.07
10,D24G,2.76
11,D24C,2.86
12,D24L,2.46
13,D24K,3.65
14,D24I,1.82
15,T22V,3.38
16,T22R,3
17,T22M,3.28
18,T22Q,4.18
19,T22W,1.85
20,T22P,3.22
21,T22N,3.47
22,T22S,3.48
23,T22Y,3.31

# Variants of: B2
# Assay: as above
# Conditions: c terminus: a fixed tail appended
row,Variant,protein stability index
1,E13G,1.44
2,E13T,2.21
3,E13H,2.24
4,E13C,1.87
5,E13F,2.46
6,E13L,1.72
7,E13W,3.11
8,E13Y,1.61
9,E13P,1.55
10,E13Q,1.56
11,E13I,1.36
12,E13V,2.08
13,E13N,2.09
14,E13S,1.78
15,E13A,1.76
16,E13R,1.66
17,E13M,1.82
18,E13D,2.32
19,E13K,2.08
20,F1Q,4.24
21,F1V,4.46
22,F1C,3.44
23,F1E,5.11
24,F1K,4.54

row,Variant,protein stability index
1,F1L,4.01
2,F1I,3.95
3,F1P,4.29
4,F1Y,2.24
5,F1A,4.21
6,F1R,4.61
7,F1N,4.94
8,F1W,3.6
9,F1H,4.48
10,F1D,5.15
11,F1T,4.63
12,F1S,4.64
13,F1G,4.61
14,F1M,3.99
15,A9T,1.69
16,A9H,2.18
17,A9K,1.62
18,A9D,2.42
19,A9G,2.06
20,A9Q,2.97
21,A9C,1.83
22,A9I,2.44
23,A9L,1.78
24,A9M,2.08

row,Variant,protein stability index
1,A9R,1.99
2,A9N,1.82
3,A9W,2.5
4,A9F,2.92
5,A9Y,2.03
6,A9V,1.91
7,A9P,1.86
8,A9E,2.46
9,A9S,2.5
10,A8K,2.23
11,A8V,2.4
12,A8H,1.85
13,A8L,1.73
14,A8F,2.73
15,A8R,2.29
16,A8Y,1.89
17,A8G,1.82
18,A8S,1.99
19,A8W,2.61
20,A8T,1.98
21,A8E,2.35
22,A8P,2.13
23,A8M,1.64
24,A8I,2.34

row,Variant,protein stability index
1,A8N,2.35
2,A8D,2.98
3,A8C,1.77
4,A8Q,1.84
5,G16A,2.3
6,G16C,1.49
7,T2E,4.66
8,T2D,4.32
9,T2R,2.71
10,T2Y,2.75
11,T2N,3.81
12,T2G,3.11
13,T2A,2.44
14,T2C,2.08
15,T2H,2.02
16,T2K,3.62
17,T2P,2.07
18,T2I,2.02
19,T2M,3.05
20,T2S,2.88
21,T2V,2.31
22,T2Q,2.26
23,T2L,2.78
24,T2F,3.13

row,Variant,protein stability index
1,T2W,2.91
2,F5P,3.81
3,F5L,3.11
4,F5C,3.03
5,F5E,4.38
6,F5T,4.06
7,F5Y,2.18
8,F5G,3.63
9,F5S,4.18
10,F5M,3.25
11,F5V,4.01
12,F5R,3.25
13,F5H,3.55
14,F5N,4.47
15,F5Q,4.12
16,F5K,3.8
17,F5I,3.14
18,F5A,4.07
19,F5D,4.79
20,F5W,3.06
21,Y12C,2.28
22,Y12M,1.83
23,Y12A,2.09
24,Y12R,1.78

row,Variant,protein stability index
1,Y12D,2.3
2,Y12V,2.34
3,Y12P,2.09
4,Y12E,2.7
5,Y12S,1.93
6,Y12H,2.04
7,Y12I,2.05
8,Y12K,2.04
9,Y12L,1.74
10,Y12W,1.39
11,Y12F,1.9
12,Y12N,2.2
13,Y12T,2.41
14,Y12G,2.22
15,Y12Q,2.25
16,A14K,2.5
17,A14Q,2.1
18,A14R,2.27
19,A14D,2.13
20,A14I,2.05
21,A14V,2.17
22,A14C,2.37
23,A14W,1.94
24,A14G,1.76

row,Variant,protein stability index
1,A14T,1.96
2,A14H,2.09
3,A14F,2.11
4,A14M,2.02
5,A14L,1.8
6,A14E,2.14
7,A14N,1.72
8,A14Y,2.09
9,A14P,2
10,A14S,1.95
11,G4N,2.3
12,G4K,1.98
13,G4S,2.38
14,G4F,2.13
15,G4R,1.87
16,G4D,2.79
17,G4V,2.21
18,G4H,2.59
19,G4C,1.94
20,G4W,2.98
21,G4M,1.74
22,G4A,1.82
23,G4E,2.22
24,G4T,2.42

row,Variant,protein stability index
1,G4Q,2.43
2,G4P,2.78
3,G4L,1.7
4,G4Y,1.68
5,G4I,2.15
6,D15L,1.58
7,D15A,2.11
8,D15C,2.27
9,D15E,2.26
10,D15G,1.68
11,D15T,1.98
12,D15S,2
13,D15H,1.74
14,D15R,1.96
15,D15F,2.42
16,D15M,1.63
17,D15V,1.43
18,D15K,1.65
19,D15W,2.46
20,D15Q,1.66
21,D15Y,2.47
22,D15I,2.12
23,D15N,1.86
24,D15P,1.64

row,Variant,protein stability index
1,N6Y,2.82
2,N6C,3
3,N6V,2.08
4,N6G,1.83
5,N6R,1.41
6,N6F,3.46
7,N6S,1.85
8,N6I,1.43
9,N6D,2.99
10,N6H,2.38
11,N6L,2.78
12,N6Q,1.94
13,N6T,1.61
14,N6M,3.01
15,N6P,1.61
16,N6K,2.45
17,N6E,2.88
18,N6A,1.84
19,N6W,3.02
20,S3I,1.76
21,S3W,2.26
22,S3A,2.37
23,S3Y,2.03
24,S3C,1.65

row,Variant,protein stability index
1,S3N,2.56
2,S3E,2
3,S3P,2.29
4,S3F,2.12
5,S3D,2.55
6,S3R,2.46
7,S3K,2.97
8,S3T,1.84
9,S3V,2.07
10,S3Q,2.19
11,S3G,4.05
12,S3H,2.14
13,S3L,2.2
14,S3M,2.52
15,L10M,2.08
16,L10Q,2.14
17,L10G,2.38
18,L10P,2.25
19,L10E,3.02
20,L10T,2.01
21,L10D,2.47
22,L10I,1.98
23,L10Y,1.64
24,L10W,1.95

row,Variant,protein stability index
1,L10H,2.32
2,L10K,1.99
3,L10V,2.33
4,L10R,1.78
5,L10S,1.53
6,L10N,2.08
7,L10A,1.62
8,L10C,1.92
9,L10F,2.3
10,A7Q,2.02
11,A7F,3.08
12,A7D,2.62
13,A7H,2.2
14,A7T,1.83
15,A7C,2.08
16,A7L,2.88
17,A7M,2.14
18,A7E,2.8
19,A7P,1.82
20,A7I,2.13
21,A7K,1.83
22,A7G,2.13
23,A7V,2.35
24,A7S,1.92

row,Variant,protein stability index
1,A7Y,2.31
2,A7N,1.73
3,A7R,2
4,A7W,2.39
5,D11E,1.79
6,D11M,1.98
7,D11T,2
8,D11I,2.27
9,D11K,2.43
10,D11R,2.2
11,D11C,2.03
12,D11G,2.46
13,D11P,1.84
14,D11N,1.57
15,D11H,2.04
16,D11A,2.16
17,D11F,3.1
18,D11S,1.5
19,D11V,2.6
20,D11Y,2.66
21,D11W,1.4
22,D11L,1.93
23,D11Q,2.01
